The assay deals with T1, β3 integrin (Homo sapiens, UniProt P05106+P06756).
T1 construct: we next stimulated human Jurkat T-cells or primary CD8+ T-cells with a synthetic version of the soluble RGDKGE; endogenous in cells; host or cells: Jurkat T-cells
Briefly: Western blot of β3 integrin phosphorylation in Jurkat T-cells after peptide stimulation. The note with it: compared to control peptide CP. Format: cell-based. As to the method:
FIGS. 2A-2F. Detection of RGDKGE (SEQ ID NO: 1)-containing collagen peptide in malignant tumor cells and expression of key signaling molecules in T-cells. Briefly, whole cell lysates and serum free concentrated conditioned medium was prepared from tumor cells lines. FIG. 2A. Western blot analysis of whole cell lysates from human C8161 and murine B16F10 melanoma cells for the expression of the low molecular weight 16 kDa RGDKGE (SEQ ID NO: 1)-containing collagen peptide (XL313) or actin as a loading control. FIG. 2B. […]
Whole cell and CAM tissue lysates were collected in RIPA buffer (10 mM Tris-HCl, pH 8.0; 1 mM EDTA; 0.5 mM EGTA; 1% Triton X-100; 0.1% Sodium Deoxycholate; 0.1% SDS; 140 mM NaCl) supplemented with 1× protease inhibitor and 1× phosphatase inhibitor and were run on polyacrylamide gels using denaturing conditions. […] Western blot bands were quantified using Image J software based on pixel intensity.
We previously made the surprising observation that a small bioactive collagen peptide containing the core amino acid sequence RGDKGE (SEQ ID NO: 1) could be generated inside a subset of M2-like activated macrophages as well as a variety of other malignant tumor cells, and then actively secreted outside the cells (11-13). Importantly, minimal levels of this soluble collagen peptide was detected in normal cells (13). […]

T1 sequence (P05106 27-788): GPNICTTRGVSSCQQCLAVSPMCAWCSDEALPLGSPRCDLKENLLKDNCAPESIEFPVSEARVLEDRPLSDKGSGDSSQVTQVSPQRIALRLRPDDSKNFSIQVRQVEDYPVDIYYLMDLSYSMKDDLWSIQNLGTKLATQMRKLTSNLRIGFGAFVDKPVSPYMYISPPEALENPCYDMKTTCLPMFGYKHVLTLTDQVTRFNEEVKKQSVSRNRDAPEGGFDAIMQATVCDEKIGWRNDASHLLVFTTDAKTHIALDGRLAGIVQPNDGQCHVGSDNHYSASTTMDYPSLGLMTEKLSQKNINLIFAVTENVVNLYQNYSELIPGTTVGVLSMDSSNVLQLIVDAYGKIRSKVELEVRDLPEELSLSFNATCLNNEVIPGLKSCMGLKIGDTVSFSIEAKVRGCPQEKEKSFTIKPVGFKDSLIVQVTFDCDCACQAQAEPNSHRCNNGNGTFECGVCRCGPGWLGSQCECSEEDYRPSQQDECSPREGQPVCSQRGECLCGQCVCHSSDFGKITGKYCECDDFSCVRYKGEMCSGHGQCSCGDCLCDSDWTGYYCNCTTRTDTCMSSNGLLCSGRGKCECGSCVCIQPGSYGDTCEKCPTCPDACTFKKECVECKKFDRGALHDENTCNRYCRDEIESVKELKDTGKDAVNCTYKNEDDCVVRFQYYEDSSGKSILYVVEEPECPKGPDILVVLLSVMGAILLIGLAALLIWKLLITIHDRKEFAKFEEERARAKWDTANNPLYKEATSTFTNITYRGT
T1 sequence (P06756 31-889 limits assumed): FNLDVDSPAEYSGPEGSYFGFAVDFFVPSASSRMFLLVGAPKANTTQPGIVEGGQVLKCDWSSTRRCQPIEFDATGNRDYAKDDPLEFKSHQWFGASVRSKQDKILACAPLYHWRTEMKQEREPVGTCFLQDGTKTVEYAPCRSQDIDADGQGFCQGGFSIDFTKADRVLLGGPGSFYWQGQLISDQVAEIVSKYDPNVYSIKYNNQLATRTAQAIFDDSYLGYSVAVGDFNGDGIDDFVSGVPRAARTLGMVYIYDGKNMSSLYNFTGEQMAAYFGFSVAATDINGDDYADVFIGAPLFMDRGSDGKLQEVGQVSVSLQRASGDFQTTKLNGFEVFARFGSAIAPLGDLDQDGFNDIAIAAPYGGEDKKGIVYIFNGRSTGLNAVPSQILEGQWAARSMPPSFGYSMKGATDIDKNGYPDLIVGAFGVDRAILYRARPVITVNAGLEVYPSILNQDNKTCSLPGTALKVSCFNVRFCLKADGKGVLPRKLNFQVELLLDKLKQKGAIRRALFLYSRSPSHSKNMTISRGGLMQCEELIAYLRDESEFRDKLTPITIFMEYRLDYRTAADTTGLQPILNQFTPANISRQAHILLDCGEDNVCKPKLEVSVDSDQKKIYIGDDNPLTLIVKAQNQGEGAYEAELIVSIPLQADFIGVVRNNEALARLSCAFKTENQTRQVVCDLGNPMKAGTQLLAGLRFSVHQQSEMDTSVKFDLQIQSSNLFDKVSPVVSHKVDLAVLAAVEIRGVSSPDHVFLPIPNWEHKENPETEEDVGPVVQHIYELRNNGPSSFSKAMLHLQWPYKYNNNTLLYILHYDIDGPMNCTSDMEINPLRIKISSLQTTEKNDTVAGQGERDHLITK
T1 sequence (P06756 891-1048 partner limits assumed): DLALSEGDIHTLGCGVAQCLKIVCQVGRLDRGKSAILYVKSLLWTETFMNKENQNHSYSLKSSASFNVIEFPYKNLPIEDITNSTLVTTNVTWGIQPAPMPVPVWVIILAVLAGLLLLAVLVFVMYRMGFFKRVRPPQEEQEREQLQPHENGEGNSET

On to “QGPRGDKGE (CQGPRGDKGEC; Synthetic: Synthetic collagen RGD containing peptide P-2) [Peptide P2, synthetic version of the soluble RGDKGE-containing collagen peptide]”, for which the β3 integrin phosphorylation result was “enhanced β3 integrin phosphorylation”.

Values taken from patent US20240327506A1, “METHODS AND COMPOSITION FOR THE SELECTIVE ENHANCEMENT OF ADOPTIVE CELL THERAPY” (MaineHealth, priority 2023, published 2024).
